Measured values taken from the supplement of paper PMC11246515.
± gives the standard deviation of the averaged measurements.

Experiment: total protein half-life in vivo (active degradation + dilution); higher = more stable protein
[1] = E. coli NCM3722 delta-clpP delta-lon delta-hslV, growth: N-lim chemostat, doubling time 6 h
[2] = E. coli NCM3722 delta-hslV, growth: N-lim chemostat, doubling time 6 h
[3] = E. coli NCM3722 delta-lon, growth: N-lim chemostat, doubling time 6 h
[4] = E. coli NCM3722 delta-smpB, growth: N-lim chemostat, doubling time 6 h
[5] = wild type E. coli NCM3722, growth: C-lim chemostat, doubling time 3 h
[6] = wild type E. coli NCM3722, growth: C-lim chemostat, doubling time 6 h
[7] = wild type E. coli NCM3722, growth: C-lim chemostat, doubling time 12 h
[8] = wild type E. coli NCM3722, growth: N-lim chemostat, doubling time 6 h
[9] = wild type E. coli NCM3722, growth: N-lim chemostat, doubling time 12 h
[10] = wild type E. coli NCM3722, growth: P-lim chemostat, doubling time 6 h
[11] = wild type E. coli NCM3722, growth: P-lim chemostat, doubling time 12 h
[12] = E. coli NCM3722 delta-clpP, growth: N-lim chemostat, doubling time 6 h

Sequence | total protein half-life in vivo [1] | total protein half-life in vivo [2] | total protein half-life in vivo [3] | total protein half-life in vivo [4] | total protein half-life in vivo [5] | total protein half-life in vivo [6] | total protein half-life in vivo [7] | total protein half-life in vivo [8] | total protein half-life in vivo [9] | total protein half-life in vivo [10] | total protein half-life in vivo [11] | total protein half-life in vivo [12]
MAEKQTAKRNRREEILQSLALMLESSDGSQRITTAKLAASVGVSEAALYRHFPSKTRMFDSLIEFIEDSLITRINLILKDEKDTTARLRLIVLLLLGFGERNPGLTRILTGHALMFEQDRLQGRINQLFERIEAQLRQVLREKRMREGEGYTTDETLLASQILAFCEGMLSRFVRSEFKYRPTDDFDARWPLIAAQLQ [P0C093] | 6.82 ± 0.62 h | 5.04 ± 0.42 h | 5.5 ± 0.72 h | 4.65 ± 0.39 h | 2.5806 ± 0.0014 h | 5.49 ± 0.15 h | 9.76 ± 1.4 h | 4.89 ± 0.97 h | 9.106 ± 0.086 h | 4.14 ± 0.13 h | 7.01 ± 0.77 h | 
MAEKRNIFLVGPMGAGKSTIGRQLAQQLNMEFYDSDQEIEKRTGADVGWVFDLEGEEGFRDREEKVINELTEKQGIVLATGGGSVKSRETRNRLSARGVVVYLETTIEKQLARTQRDKKRPLLHVETPPREVLEALANERNPLYEEIADVTIRTDDQSAKVVANQIIHMLESN [P0A6D7] | 4.84 ± 0.069 h | 2.76 ± 0.24 h | 4.2 ± 0.64 h | 2.69 ± 0.079 h | 2.24 ± 0.27 h | 3.989 ± 0.026 h | 5.31 ± 0.22 h | 2.26 ± 0.05 h | 3.61 ± 0.34 h | 2.62 ± 0.12 h | 4.5 ± 0.26 h | 3.45 ± 0.24 h
MAELLLGVNIDHIATLRNARGTAYPDPVQAAFIAEQAGADGITVHLREDRRHITDRDVRILRQTLDTRMNLEMAVTEEMLAIAVETKPHFCCLVPEKRQEVTTEGGLDVAGQRDKMRDACKRLADAGIQVSLFIDADEEQIKAAAEVGAPFIEIHTGCYADAKTDAEQAQELARIAKAATFAASLGLKVNAGHGLTYHNVKAIAAIPEMHELNIGHAIIGRAVMTGLKDAVAEMKRLMLEARG [P0A794] | 5.813 ± 0.038 h | 5.95 ± 0.48 h | 5.61 ± 0.29 h | 5.4 ± 0.14 h | 3.17 ± 0.12 h | 5.5 ± 0.1 h | 11.7 ± 0.53 h | 5.9 ± 0.39 h | 9.84 ± 0.17 h | 6.06 ± 0.43 h |  | 5.468 ± 0.049 h
MAELTALHTLTAQMKREGIRRLLVLSGEEGWCFEHTLKLRDALPGDWLWISPRPDAENHCSPSALQTLLGREFRHAVFDARHGFDAAAFAALSGTLKAGSWLVLLLPVWEEWENQPDADSLRWSDCPDPIATPHFVQHLKRVLTADNEAILWRQNQPFSLAHFTPRTDWYPATGAPQPEQQQLLKQLMTMPPGVAAVTAARGRGKSALAGQLISRIAGRAIVTAPAKASTDVLAQFAGEKFRFIAPDALLASDEQADWLVVDEAAAIPAPLLHQLVSRFPRTLLTTTVQGYEGTGRGFLLKFCARFPHLHRFELQQPIRWAQGCPLEKMVSEALVFDDENFTHTPQGNIVISAFEQTLWQSDPETPLKVYQLLSGAHYRTSPLDLRRMMDAPGQHFLQAAGENEIAGALWLVDEGGLSQQLSQAVWAGFRRPRGNLVAQSLAAHGNNPLAATLRGRRVSRIAVHPARQREGTGRQLIAGALQYTQDLDYLSVSFGYTGELWRFWQRCGFVLVRMGNHREASSGCYTAMALLPMSDAGKQLAEREHYRLRRDAQALAQWNGETLPVDPLNDAVLSDDDWLELAGFAFAHRPLLTSLGCLLRLLQTSELALPALRGRLQKNASDAQLCTTLKLSGRKMLLVRQREEAAQALFALNDVRTERLRDRITQWQLFH | 5 ± 1.1 h | 4.37 ± 0.39 h | 4.56 ± 0.19 h | 4.39 ± 0.29 h | 3.04 ± 0.3 h | 6.05 ± 0.38 h |  | 4.07 ± 1.4 h | 7.56 ± 0.58 h | 6.65 ± 0.2 h | 12.2 ± 1.5 h | 4.59 ± 0.41 h
MAESFTTTNRYFDNKHYPRGFSRHGDFTIKEAQLLERHGYAFNELDLGKREPVTEEEKLFVAVCRGEREPVTEAERVWSKYMTRIKRPKRFHTLSGGKPQVEGAEDYTDSDD [P0ADN2] |  |  | 5.14 ± 0.96 h | 3.28 ± 0.088 h | 2.19 ± 0.043 h | 4.55 ± 0.35 h | 5.73 h | 3.09 ± 0.15 h | 5.68 ± 0.092 h | 3.14 ± 0.43 h | 5.53 ± 0.6 h | 
MAETKIVVGPQPFSVGEEYPWLAERDEDGAVVTFTGKVRNHNLGDSVNALTLEHYPGMTEKALAEIVDEARNRWPLGRVTVIHRIGELWPGDEIVFVGVTSAHRSSAFEAGQFIMDYLKTRAPFWKREATPEGDRWVEARESDQQAAKRW | 4.68 ± 0.7 h | 5.32 ± 0.47 h | 4.42 ± 0.088 h | 3.5 ± 0.33 h | 2.7 ± 0.15 h | 5.78 ± 0.33 h | 8.46 ± 0.13 h | 4.573 ± 0.012 h | 6.78 h | 6.8 ± 1.3 h | 11.1 ± 0.62 h | 3.99 ± 0.26 h
MAEWSGEYISPYAEHGKKSEQVKKITVSIPLKVLKILTDERTRRQVNNLRHATNSELLCEAFLHAFTGQPLPDDADLRKERSDEIPEAAKEIMREMGINPETWEY [P0A8U6] | > 8 h | 5.96 ± 0.098 h | 6.2 ± 0.13 h | 6.26 ± 0.61 h | 3.19 ± 0.061 h | 5.63 ± 0.29 h | 6.09 h | 4.87 ± 0.35 h | 10.7 ± 6.7 h | 4.35 ± 0.99 h | 12 ± 4.2 h | 5.7 h
MAFKFKTFAAVGALIGSLALVGCGQDEKDPNHIKVGVIVGAEQQVAEVAQKVAKDKYGLDVELVTFNDYVLPNEALSKGDIDANAFQHKPYLDQQLKDRGYKLVAVGNTFVYPIAGYSKKIKSLDELQDGSQVAVPNDPTNLGRSLLLLQKVGLIKLKDGVGLLPTVLDVVENPKNLKIVELEAPQLPRSLDDAQIALAVINTTYASQIGLTPAKDGIFVEDKESPYVNLIVTREDNKDAENVKKFVQAYQSDEVYEAANKVFNGGAVKGW | 5.86 ± 0.32 h | 6.15 ± 0.22 h | 6.95 ± 0.8 h | 5.84 ± 0.36 h | 3.04 ± 0.097 h | 6.52 ± 0.23 h | 11.6 ± 0.54 h | 5.85 ± 0.088 h | 12.69 ± 0.014 h | 5.99 ± 0.093 h | 13 ± 0.76 h | 6.85 ± 0.96 h
